The text below walks through data of the supplement of paper PMC12764529.

± gives the half width of the 95% confidence interval.

Data set [1] is described as follows: folding stability dG unfold from trypsin proteolysis; higher = more stable. An outline of the steps:
(§1)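 How resistant each design was to proteolysis was captured as K50, inferred by Bayesian fitting of sequencing counts. Unfolding free energy was then derived relative to a sequence-predicted unfolded-state K50 and a shared folded-state K50, per protease or combined. Digestion used trypsin and chymotrypsin at 11 threefold-diluted concentrations plus a no-protease condition, on mini-proteins under 80 residues without cysteine in a PA-tagged cDNA display construct. Designs were kept only when AlphaFold2 dimer inter-PAE was above 15.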

A short description of data set [2]: folding stability dG unfold from chymotrypsin proteolysis; higher = more stable. An outline of the steps: as §1
The nature of data set [3]: folding stability dG unfold (combined trypsin and chymotrypsin); higher = more stable. A digest of the protocol: as §1

Turning to “SAGGSAGGSAGIKIVAPSPELADMIAKEIAKEFGLPGKIKDIEIEVIPYKPTPNGGYQPYSAGGSAGGSAGG [r17_237_TrROS]”, the figures for the “folding stability dG unfold” value in data set [1], in data set [2] and in data set [3] were -0.14 ± 0.26 kcal/mol, -0.363 ± 0.75 kcal/mol and -0.383 ± 0.81 kcal/mol, respectively.

Take “SAGGSAGGSAGIVIKAKSPDEAVEALKKLFEKTGKADINIKPVKVLPDGNVLVEAGIDNKSAGGSAGGSAGG [r17_430_TrMRF]”: the figures for the “folding stability dG unfold” value in data set [1], in data set [2] and in data set [3] were -0.403 ± 0.054 kcal/mol, -1.43 ± 0.61 kcal/mol and -0.689 ± 0.34 kcal/mol, respectively.

“SAGGSAGGSAGIVIPLDGRPIVIDMYPNGYMRIEVEPPNGKKKTRTFPGAPIEDILKAIKSAGGSAGGSAGG [r11_934_TrROS]”: the “folding stability dG unfold” value is -0.695 ± 0.71 kcal/mol in data set [1], -0.0199 ± 0.12 kcal/mol in data set [2] and -0.204 ± 0.28 kcal/mol in data set [3].

As to “SAGGSAGGSAGKAESGDNAITLTLPGGHKVTIPNLPPNEPVWVKLNNRWVKIGDLKVNPKSAGGSAGGSAGG [r11_16_TrMRF]”, the “folding stability dG unfold” value was -0.131 ± 0.16 kcal/mol in data set [1], 0.227 ± 0.25 kcal/mol in data set [2] and 0.196 ± 0.18 kcal/mol in data set [3].

“SAGGSAGGSAGKDKGQKEVPEINIRIEPVNFHWEYDKGNGKPKSIHFMFKIRYPNGREITSAGGSAGGSAGG [r11_890_TrROS]”: the figures for the “folding stability dG unfold” value in data set [1], in data set [2] and in data set [3] were 1.24 ± 0.1 kcal/mol, 0.674 ± 0.29 kcal/mol and 1.15 ± 0.28 kcal/mol, respectively.

In the case of “SAGGSAGGSAGKEIIKNIPKGVKVLKIEPLPGKSGTYVKIEVEFPDPNGVKHRLTFIAPESAGGSAGGSAGG [r17_140_TrMRF]”, the “folding stability dG unfold” value is 0.67 ± 0.15 kcal/mol in data set [1], 1.34 ± 0.14 kcal/mol in data set [2] and 1.16 ± 0.23 kcal/mol in data set [3].

In the case of “SAGGSAGGSAGKEKTITVLLEVDGYLVVAEVKLNEDGSLEITSVKVIKLPKPKPSPEALKSAGGSAGGSAGG [r11_843_TrROS_Hall]”, the entries for the “folding stability dG unfold” value in data set [1], in data set [2] and in data set [3] were 1.07 ± 0.048 kcal/mol, 0.516 ± 0.033 kcal/mol and 0.907 ± 0.21 kcal/mol, respectively.

On to “SAGGSAGGSAGKETITITLVVTDENGEKYLIRVEAKIDPKTNKITITKIEIIRLDDLKKLSAGGSAGGSAGG [r11_777_TrROS_Hall]”, for which the “folding stability dG unfold” value came to 1.12 ± 0.093 kcal/mol in data set [1], 1.72 ± 0.058 kcal/mol in data set [2] and 1.75 ± 0.41 kcal/mol in data set [3].

Take “SAGGSAGGSAGKFKIKVFTHPDGYALALIEVPLGDKPVLILTLIKFPEDGNAEAETFIFPSAGGSAGGSAGG [r11_555_TrMRF]”: the “folding stability dG unfold” value in data set [1] amounted to 2.06 ± 0.053 kcal/mol; in data set [2], 3.25 ± 0.077 kcal/mol; in data set [3], 2.84 ± 0.13 kcal/mol.

Consider “SAGGSAGGSAGKFKLKIKEVHWRENPNGYEQVKVEIKIPGEEKKIWFPPGMSIDQILDQLSAGGSAGGSAGG [r11_1056_TrROS]”, for which the “folding stability dG unfold” value in data set [1] came to 0.415 ± 0.081 kcal/mol; in data set [2], 1.13 ± 0.18 kcal/mol; in data set [3] it was 0.732 ± 0.12 kcal/mol.

As to “SAGGSAGGSAGKIEAFPGKNTVLLKISIPRRDPNSDSIYTLHAVIPATPEQAKKFLELGISAGGSAGGSAGG [r11_389_TrMRF]”, the “folding stability dG unfold” value in data set [1] is 0.89 ± 0.041 kcal/mol; in data set [2], 0.899 ± 0.14 kcal/mol; in data set [3], 0.97 ± 0.1 kcal/mol.

As to “SAGGSAGGSAGKIKVEKDKKTNEYRVTIELFDKNGKPVKKIEITVKKEDLPKIKELLKKLSAGGSAGGSAGG [r11_77_TrROS_Hall]”, the “folding stability dG unfold” value in data set [1] amounted to 2.96 ± 0.069 kcal/mol; in data set [2], 3.6 ± 0.1 kcal/mol; in data set [3], 3.4 ± 0.076 kcal/mol.

As to “SAGGSAGGSAGKIPEIIKKTNAVEKDGKIFLGIKTDGKYYLIELEKKTLKIKKIEPFPDKSAGGSAGGSAGG [r11_808_TrMRF]”, the “folding stability dG unfold” value is -0.135 ± 0.14 kcal/mol in data set [1], 0.776 ± 0.12 kcal/mol in data set [2] and 0.488 ± 0.085 kcal/mol in data set [3].

Consider “SAGGSAGGSAGKIVIVVDEDGNYTLKVNGKTYVFKTPEEAKAAAEELKKAGIEIEIVEVPSAGGSAGGSAGG [r17_35_TrROS_Hall]”, for which the “folding stability dG unfold” value in data set [1] came out at 3.6 ± 0.21 kcal/mol; in data set [2], 4.96 ± 0.16 kcal/mol; in data set [3], 4.85 ± 0.17 kcal/mol.

As to “SAGGSAGGSAGKIWIYNPENGWIFEISIQPHPMPNDDGEPQWMFSIDVEVYPPGKPGQPISAGGSAGGSAGG [r11_531_TrROS]”, the “folding stability dG unfold” value in data set [1] was determined as 2.59 ± 0.079 kcal/mol; in data set [2], 4.1 ± 0.066 kcal/mol; in data set [3] it was 3.59 ± 0.065 kcal/mol.

As for “SAGGSAGGSAGKIYIVKLPNETIEIEFEGTEEEAIDFAIKELEKLFPKPIPKDDIIILGGSAGGSAGGSAGG [r11_1028_TrMRF]”, the “folding stability dG unfold” value came out at 1.76 ± 0.074 kcal/mol in data set [1], 1.65 ± 0.043 kcal/mol in data set [2] and 1.71 ± 0.14 kcal/mol in data set [3].

For “SAGGSAGGSAGKKIKLPKELKGKKIEVKEVEIEVEVNGKKYKFKAKIVKFDGKIIAIELESAGGSAGGSAGG [r11_21_TrROS_Hall]”, the entries for the “folding stability dG unfold” value in data set [1], in data set [2] and in data set [3] were 1.36 ± 0.069 kcal/mol, 3.31 ± 0.055 kcal/mol and 2.98 ± 0.17 kcal/mol, respectively.

Regarding “SAGGSAGGSAGKKIKVKIEVVYTDEDGNKHKVEMEKEIELKPGDKITLPPEAITRVEILPSAGGSAGGSAGG [r11_664_TrROS_Hall]”, the “folding stability dG unfold” value stood at 0.832 ± 0.17 kcal/mol in data set [1], 1.95 ± 0.12 kcal/mol in data set [2] and 1.57 ± 0.19 kcal/mol in data set [3].

For the sequence “SAGGSAGGSAGKKITIELPEGVKVYKLPNENDYIIVEDEKTKEKYIFKIKDGKVELIEKLSAGGSAGGSAGG [r11_1036_TrROS_Hall]”, the “folding stability dG unfold” value was 1.01 ± 0.054 kcal/mol in data set [1], 1.86 ± 0.15 kcal/mol in data set [2] and 1.47 ± 0.14 kcal/mol in data set [3].

With “SAGGSAGGSAGKKKGKKPKKIKVKKIKLIVKDKETNEYYEKEITVNKDGTLTIKVKKLKKSAGGSAGGSAGG [r11_883_TrROS_Hall]”, the “folding stability dG unfold” value worked out at 1.85 ± 0.083 kcal/mol in data set [1], 3.07 ± 0.089 kcal/mol in data set [2] and 2.75 ± 0.1 kcal/mol in data set [3].

Regarding “SAGGSAGGSAGKKKKKKLVRVRITYKNGKKKEFVFKTKEEAEKALKEEFNIEKIEIEEIPSAGGSAGGSAGG [r17_508_TrROS_Hall]”, the “folding stability dG unfold” value turned out to be 2.84 ± 0.1 kcal/mol in data set [1], 3.66 ± 0.068 kcal/mol in data set [2] and 3.43 ± 0.16 kcal/mol in data set [3].

On to “SAGGSAGGSAGKKKLTVTVKKKKPAKEKKKVKTKVVKEKKLELSEEELKKLLDELKELLESAGGSAGGSAGG [r11_418_TrROS_Hall]”, for which the “folding stability dG unfold” value in data set [1] is 0.624 ± 0.079 kcal/mol; in data set [2], -0.447 ± 0.14 kcal/mol; in data set [3], 0.321 ± 0.16 kcal/mol.

With “SAGGSAGGSAGKKLKPFKVVEVKEPVKEGDVIEVENEATGELYRFTVVNGEIKIEKVKLDSAGGSAGGSAGG [r11_94_TrROS_Hall]”, the results for the “folding stability dG unfold” value in data set [1], in data set [2] and in data set [3] were 0.225 ± 0.053 kcal/mol, 0.442 ± 0.21 kcal/mol and 0.365 ± 0.29 kcal/mol, respectively.

Take “SAGGSAGGSAGKKPPKVKVLELTFTLEDGYKVTVRLVENEDGELFLEIRIEPLPELPEEKSAGGSAGGSAGG [r11_998_TrROS_Hall]”: the “folding stability dG unfold” value stood at 1.79 ± 0.16 kcal/mol in data set [1], 3.36 ± 0.14 kcal/mol in data set [2] and 2.94 ± 0.13 kcal/mol in data set [3].

Consider “SAGGSAGGSAGKKPPVYRLVVENEDGEKYEFEFKSLEDLKAALESEEVRKKIKKVKIEKVSAGGSAGGSAGG [r11_1047_TrROS_Hall]”, for which the “folding stability dG unfold” value in data set [1] is 2.11 ± 0.09 kcal/mol; in data set [2], 3.02 ± 0.11 kcal/mol; in data set [3], 2.6 ± 0.15 kcal/mol.

Regarding “SAGGSAGGSAGKKSYVLIKVKNPKTKETHTIVVPEENLEEVLKALASQPNVKVVDIERFPSAGGSAGGSAGG [r11_692_TrROS_Hall]”, the “folding stability dG unfold” value came out at 3.65 ± 0.19 kcal/mol in data set [1], 4.11 ± 0.065 kcal/mol in data set [2] and 3.95 ± 0.12 kcal/mol in data set [3].

Take “SAGGSAGGSAGKKVKISLILIAKSPEEAEEAAKAIKEAFGSEDVEVDIIEIPAKLGPGKLSAGGSAGGSAGG [r17_285_TrMRF]”: the “folding stability dG unfold” value in data set [1] is 0.319 ± 0.072 kcal/mol; in data set [2], 0.252 ± 0.12 kcal/mol; in data set [3], 0.378 ± 0.26 kcal/mol.

As for “SAGGSAGGSAGKKYKVKVILQPKGEDKPLEIEIEVESLEEAKELLEKAFPDTRIRIDVIESAGGSAGGSAGG [r17_428_TrMRF]”, the “folding stability dG unfold” value in data set [1] worked out at 1.99 ± 0.098 kcal/mol; in data set [2], 2.93 ± 0.088 kcal/mol; in data set [3], 2.59 ± 0.18 kcal/mol.

Consider “SAGGSAGGSAGKLPEGMKMEVRPKTIFNEDGYMIKITIIRAPDPNILAINIEIIPPGDPISAGGSAGGSAGG [r11_338_TrROS]”, for which the “folding stability dG unfold” value in data set [1] was found to be 2.04 ± 0.12 kcal/mol; in data set [2] it was 1.89 ± 0.14 kcal/mol; in data set [3] it was 2.14 ± 0.24 kcal/mol.

Regarding “SAGGSAGGSAGKLRVRIPPRLRERLRKRKRVRLRLRVEEREVRDEDGNLRRVRRLEIELESAGGSAGGSAGG [r11_113_TrROS_Hall]”, the figures for the “folding stability dG unfold” value in data set [1], in data set [2] and in data set [3] were 0.819 ± 0.15 kcal/mol, 2.03 ± 0.19 kcal/mol and 1.42 ± 0.17 kcal/mol, respectively.

“SAGGSAGGSAGKNWFFRIKIKYPNGEERTIYIPGTLDEIKEELPGPIKNIDIEPMPAEDMSAGGSAGGSAGG [r11_596_TrROS]”: the “folding stability dG unfold” value in data set [1] was 1.05 ± 0.045 kcal/mol; in data set [2] it was 1.76 ± 0.1 kcal/mol; in data set [3], 1.52 ± 0.078 kcal/mol.

Turning to “SAGGSAGGSAGKPEFELIAKIEVNGKTYYILRNKETGEYLIYDLDTGKKYTIRKDDPNLLSAGGSAGGSAGG [r11_1007_TrROS_Hall]”, the figures for the “folding stability dG unfold” value in data set [1], in data set [2] and in data set [3] were 2.47 ± 0.16 kcal/mol, 2.95 ± 0.066 kcal/mol and 2.78 ± 0.34 kcal/mol, respectively.

As to “SAGGSAGGSAGKPEIEMEIETRTVRLPDGYLLRFSRMRITLPDGSKFEFLSVEIIRLEDLSAGGSAGGSAGG [r17_312_TrROS_Hall]”, the “folding stability dG unfold” value in data set [1] was 3.88 ± 0.31 kcal/mol; in data set [2] it was 5.56 ± 0.14 kcal/mol; in data set [3], 5.38 ± 0.36 kcal/mol.

On to “SAGGSAGGSAGKPKKPKLVKVKITLPNGEKKEIITEDVEEVIKEINEEFGAIKIEVEEIKSAGGSAGGSAGG [r17_508_TrMRF]”, for which the figures for the “folding stability dG unfold” value in data set [1], in data set [2] and in data set [3] were 2.68 ± 0.12 kcal/mol, 2.8 ± 0.14 kcal/mol and 2.76 ± 0.17 kcal/mol, respectively.

In the case of “SAGGSAGGSAGKPKTKTITLTLLVYDEETGEFYRIEARIEINEDGSITIEEKIEKLPLKPSAGGSAGGSAGG [r11_941_TrROS_Hall]”, the “folding stability dG unfold” value in data set [1] is 2.81 ± 0.13 kcal/mol; in data set [2], 4.17 ± 0.1 kcal/mol; in data set [3], 3.91 ± 0.12 kcal/mol.
